Measurements taken from the supplement of paper PMC10567573.
± gives the standard deviation.

Test: protein stability index of a GFP-peptide fusion (GPS, HEK-293T) (PSI 1-6); higher = more stable
[1] = treatment: DMSO, c terminus: a fixed tail appended
[2] = treatment: MLN4924 1 uM, 8 h, c terminus: a fixed tail appended
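Note: 24-mer peptide tiles fused after GFP, lentivirally expressed, FACS-sorted into six equal bins by GFP/DsRed ratio, decoded by Illumina sequencing, PSI is the read-weighted mean bin number.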

| Sequence | protein stability index [1] | protein stability index [2] | protein stability index (treatment: DMSO, c terminus: native) | protein stability index (treatment: MLN4924 1 uM, 8 h, c terminus: native) |
| --- | --- | --- | --- | --- |
| AKQIMEETYKMEFMYSGVENKQVV [INTS4] | 2.23 ± 0.31 | 2.65 ± 0.61 |  |  |
| RVIMIVTDGRPQDSVAEVAAKARD [MATN2] | 3.165 ± 0.024 | 2.76 ± 0.6 |  |  |
| NQGTQITVEDLFYNIATRRKALKN [MLH1] | 3.29 ± 0.32 | 3.37 ± 0.48 |  |  |
| DDVEMKNGITQGDKLRALKSQRQP [CDC14A] | 4.91 ± 0.25 | 5.05 ± 0.25 |  |  |
| GLVPSEKPPMMPQAQPAIPRPNRL [C2CD2L] | 4.65 ± 0.21 | 4.47 ± 0.068 |  |  |
| ELYVFGGVRSREDAQGSEMVTCKS [GAN] | 4.08 ± 0.38 | 4.15 ± 0.34 |  |  |
| KAVKDLVVLLFETALLSSGFSLED [HSP90AB1] | 2.92 ± 0.17 | 2.88 ± 0.16 |  |  |
| WICQRSTVASMMHRQETVDCLKKF [CAMK2D] | 2.67 ± 0.15 | 2.43 ± 0.64 |  |  |
| VKDEAHQAQKDPKKDRPLARRKSE [PPP2R5C] | 5.55 ± 0.25 | 5.43 ± 0.22 |  |  |
| DPDFKDLGALKPLPACEFEMGGSE [NETO1] | 5.24 ± 0.22 | 5.27 ± 0.2 |  |  |
| DYDLVLAEDEEMNRMHESMKLFDS [GNAI1] | 4.42 ± 0.26 | 4.84 ± 0.33 |  |  |
| LKTKDGKLPFCAMGVSSVIHPKNP [CPOX] | 3.17 ± 0.34 | 3.17 ± 0.51 |  |  |
| YAILDEKKSELLQRITQEQEKKLS [TRIM63] | 4.35 ± 0.17 | 4.52 ± 0.13 |  |  |
| LLNSPPSFVCWSRGFMEMNGRGEL [AUP1] | 2.1 ± 0.52 | 2.07 ± 0.46 |  |  |
| TTSEEAVGGATLAQTTSEAAMEGA [HDAC6] | 5.59 ± 0.34 | 5.43 ± 0.31 |  |  |
| LTDDKQVLNTQGQKTSGQHMIQGA [DLC1] | 5.06 ± 0.2 | 5.04 ± 0.14 |  |  |
| ISVNGDVITIKSESTFKNTEISFI [FABP4] | 2.75 ± 1.1 | 2.11 ± 0.16 |  |  |
| SHLSNGLDPVAETAIRQLTEPSGR [C2CD2L] | 4.34 ± 0.31 | 4.58 ± 0.3 |  |  |
| QFANLVLHQTVERIHVGKKYGDIP [LSM1] | 2.13 ± 0.22 | 2.09 ± 0.23 |  |  |
| LHQETQLIHVYLPLTSHILRAFVN [SNX8] | 3.06 ± 0.67 | 2.86 ± 0.48 |  |  |
| INDNAPTFQSSVLRVGIPENAPIG [PCDHGC5] | 3.99 ± 0.066 | 4.18 ± 0.19 |  |  |
| AEPGALGEPGAAAPAMYDDESAID [CEBPD] | 5.6 ± 0.57 | 5.77 ± 0.21 |  |  |
| TDCGKAFLKKSQLTEHKRIHTGKK [ZNF649] | 3.62 ± 0.5 | 3.48 ± 0.42 |  |  |

| Sequence | protein stability index [1] | protein stability index [2] | protein stability index (treatment: DMSO, c terminus: native) | protein stability index (treatment: MLN4924 1 uM, 8 h, c terminus: native) |
| --- | --- | --- | --- | --- |
| AAFLALLRFLYSDEVQIGPETVMT [BTBD1] | 2.49 ± 0.78 | 2.14 ± 0.004 |  |  |
| GSRLAEFGAAGVNRLSIGLQSLDD [RSAD1] | 4.22 ± 0.48 | 4.09 ± 0.34 |  |  |
| LILSIIFIEGYCTPEEVIWEALNM [MAGEA10] | 3.32 ± 0.44 | 3.21 ± 0.79 |  |  |
| YAVGGSDGTSPLNTVERYNPQENR [KLHL20] | 4.53 ± 0.33 | 4.79 ± 0.28 |  |  |
| FARYPNGVVVHYFCSKEVNPADT [VPS39] |  |  | 2.4 ± 0.22 | 2.27 ± 0.18 |
| SLLQKVSPVAHKHLSRQKIDPLLY [TBC1D10A] | 2.07 ± 0.19 | 2.24 ± 0.2 |  |  |
| AKEDGKADTKKRHTPRGHAESTSN [SMOC2] | 5.53 ± 0.25 | 5.45 ± 0.35 |  |  |
| LAARSGAAYGPGARGEDRAGPQSP [TSPAN10] | 5.15 ± 0.22 | 4.9 ± 0.09 |  |  |
| VGIYATNSAEACQYVITHAKVNIL [ACSBG2] | 2.73 ± 0.69 | 2.38 ± 0.83 |  |  |
| RPVAPRRPRDAVGQRGAQGAGRRR [SMAD6] | 5.27 ± 0.23 | 5.43 ± 0.14 |  |  |
| KVLQGGEQEIQFEDFTNTLRELGH [PKD2L1] | 3.08 ± 0.35 | 3.31 ± 0.23 |  |  |
| RIKGVEVFCPLDPPPPYEAVVSQM [FAM189A2] | 2.83 ± 0.33 | 2.88 ± 0.22 |  |  |
| NSMAPHPARDYVVLRTWRTNLPKG [DLC1] | 2.48 ± 0.59 | 2.64 ± 0.21 |  |  |
| FAPQTGARPSETFARFCKSQESAL [DNAAF3] | 2.5 ± 0.45 | 2.76 ± 0.52 |  |  |
| LLQDKQFELALQLAEMKDDSDSEK [VPS39] | 5.19 ± 0.23 | 5.17 ± 0.26 |  |  |
| ALFAQVQRGALPAPDPELAAEMYQ [RSAD1] | 3.69 ± 0.087 | 3.78 ± 0.34 |  |  |
| GGPGGPGSDKQQQQQHIECVVCGD [NR2F2] | 5.02 ± 0.21 | 5.02 ± 0.45 |  |  |
| TGEASENGLEDIDRILERIEDSTG [TCF25] | 5.47 ± 0.074 | 5.46 ± 0.29 |  |  |
| STSSSFPSSFPSSSSSSSSSCYPL [MAGEA10] | 3.73 ± 0.11 | 3.82 ± 0.32 |  |  |
| SNSCPAELPNIKREISETEAKALL [TFE3] | 5.1 ± 0.098 | 5.18 ± 0.12 |  |  |
| SSHEPCSATCTTGVMSAYAMCVRY [ADAMTSL2] | 2.24 ± 0.3 | 2.32 ± 0.19 |  |  |
| QKRETLSPLCLIPMVTSPREEQQL [KCTD13] | 3.98 ± 0.18 | 4.08 ± 0.15 |  |  |
| ERMAEEGGGGQGDGGSSLASGSTQ [FBXO28] | 5.53 ± 0.35 | 5.35 ± 0.33 |  |  |

| Sequence | protein stability index [1] | protein stability index [2] | protein stability index (treatment: DMSO, c terminus: native) | protein stability index (treatment: MLN4924 1 uM, 8 h, c terminus: native) |
| --- | --- | --- | --- | --- |
| PKKKHLDYLIQATNETNVNIPQMA [SNAP91] | 3.67 ± 0.13 | 3.43 ± 0.33 |  |  |
| STMTSSVQIYNLSQNIQEDDLQQL [ATL3] | 4.45 ± 0.13 | 4.57 ± 0.31 |  |  |
| ANQKLSEKLAAGALPHINARGPVR [CCDC3] | 3.62 ± 0.43 | 3.86 ± 0.77 |  |  |
| DIIRKQVLGTKVDAERDGVKVPTT [CDC34] | 4.2 ± 0.34 | 4.23 ± 0.17 |  |  |
| WQLLLFLCATHFGEPLEKVASVGN [KISS1] | 2.78 ± 1.2 | 2.29 ± 0.35 |  |  |
| VKDLIKKLLVVDRTRRLGNMKNGA [PRKX] | 2.62 ± 0.57 | 2.33 ± 0.56 |  |  |
| HKESKMTIFEKENFIGRQWEISDD [CRYBA1] | 4.13 ± 0.4 | 4.07 ± 0.3 |  |  |
| WMQVASLNEKRTFFHLSALKGYLY [KLHL13] | 2.76 ± 0.57 | 2.58 ± 0.36 |  |  |
| EDDALSDKHGCPAYVSPEILNTTG [TRIB1] | 4.97 ± 0.24 | 4.95 ± 0.072 |  |  |
| IWAQGWVPAAGGPAPKRGYSSEMK [AUH] |  | 2.9 ± 0.29 |  |  |
| EVHRLIEGKAPIISGVTKAISSPT [TPPP] | 3.42 ± 0.18 | 3.84 ± 0.28 |  |  |
| EGAQLGENKPSTCSFSIERILGLD [HESX1] | 2.92 ± 0.18 | 3.11 ± 0.1 |  |  |
| RFALIPAPELVERVQSVDFMRTDP [KLHL14] | 3.26 ± 0.17 | 3.26 ± 0.18 |  |  |
| ENRALQQLLEQKQAYWAQAEDTAA [CBY2] | 4.3 ± 0.21 | 4.4 ± 0.21 |  |  |
| YQPAPYFAAEARYPIYVIPEPPPV [TENT5D] | 2.02 ± 0.18 | 2.35 ± 0.55 |  |  |
| SYQDWQQNLYFNCSSPGVQACSLP [TSPAN10] | 2.32 ± 0.28 | 2.62 ± 0.2 |  |  |
| HELTAKYLNYYQGMLDVADESLTD [P3H4] | 4.01 ± 0.3 | 3.89 ± 0.48 |  |  |
| DSIKTEVSGCPEDLTVGRAPTADD [NOL4L] | 5.63 ± 0.34 | 5.68 ± 0.15 |  |  |
| IMTQLRQEGWIHHLARHAVACFLT [CRY1] | 3.02 ± 0.38 | 2.84 ± 0.61 |  |  |
| MVFSGLCPLLLGSVMAIERCIGVT [PTGFR] | 3.4 ± 0.078 | 3.37 ± 0.41 |  |  |
| PEARYLFLLDVIPVDGARYRWQGR [TBX6] | 2.08 ± 0.27 | 2.09 ± 0.31 |  |  |
| HEDLLTRIGEATKPDGTVEQIGHI [NET1] | 4.95 ± 0.13 | 4.93 ± 0.17 |  |  |
| IESLNEELAYMKKNHEEEMKEFSN [KRT13] | 4.88 ± 0.38 | 5.06 ± 0.3 |  |  |

| Sequence | protein stability index [1] | protein stability index [2] | protein stability index (treatment: DMSO, c terminus: native) | protein stability index (treatment: MLN4924 1 uM, 8 h, c terminus: native) |
| --- | --- | --- | --- | --- |
| EVRKLTQRLEEMTQRMEALENRLR [MATN2] | 2.57 ± 0.39 | 2.91 ± 0.4 |  |  |
| AVAFMPEDITKGTQSLPTASASKF [AUP1] | 4.22 ± 0.18 | 4.3 ± 0.16 |  |  |
| TIRLNISDVNDNAPRFNQQLYTAY [PCDHGC5] | 2.41 ± 0.18 | 2.37 ± 0.2 |  |  |
| ARFVSSGSGGGYGGGMRVCGFGGG [KRT15] | 2.63 ± 0.31 | 2.74 ± 0.25 |  |  |
| EAELRRRDTFYKEQLERIERKNAE [CHCHD6] | 5.1 ± 0.41 | 5.34 ± 0.28 |  |  |
| WDSGCLAPPSTRTSHSLPESSVPS [PLEKHN1] | 4.4 ± 0.59 | 4.64 ± 0.23 |  |  |
| SSSCAVHDLIFWRDVKKTGFVFGT [RTN3] | 2.71 ± 0.52 | 2.58 ± 0.52 |  |  |
| GEHKDRIERQWGNLLGEGQHKCDE [ZSCAN9] | 4.88 ± 0.4 | 4.93 ± 0.14 |  |  |
| SHRPNMELCRDAAQFRLLSEVEEL [TEKT4] | 3.82 ± 0.3 | 3.72 ± 0.05 |  |  |
| IDNSSEIEDEDQILENSSQKENVF [FAN1] | 5.39 ± 0.28 | 5.2 ± 0.56 |  |  |
| PQKTYSVKVLAFTSIGDGPLSSDI [PTPRD] | 2.17 ± 0.29 | 1.89 ± 0.3 |  |  |
| LTPLELLLRQLGRDAGATPSAAGA [ANKRD9] | 2.42 ± 0.16 | 2.58 ± 0.23 |  |  |
| FVSKIRAVINDIANLPVPTIAAID [AUH] | 2.42 ± 1.6 | 2.04 ± 0.54 |  |  |
| IFRNLCQMQEDNSSFSLLLDLLSE [INTS3] | 2.61 ± 0.28 | 2.51 ± 0.37 |  |  |
| LPILGHRDYKIQASRTWCFYNTED [PTGFR] | 2.41 ± 0.31 | 2.53 ± 0.33 |  |  |
| VDGKTIKAQIWDTAGQERYRAITS [RAB11A] | 3.34 ± 0.19 | 3.68 ± 0.22 |  |  |
| KSKAYTVVGTPCYISPELCEGKPY [NEK8] | 2.83 ± 0.084 | 3.03 ± 0.27 |  |  |
| STAHASAQSLAGGSRRTKEEELQC [TPD52L1] | 5.16 ± 0.15 | 5.12 ± 0.23 |  |  |
| EVSSPPDTTEEVDHKPKLCRLAKG [PDZK1] | 5.11 ± 0.45 |  |  |  |
| ENSHTNTEVLRNMGFAAKAMKSVH [CHMP4C] | 3.61 ± 0.28 | 3.77 ± 0.23 |  |  |
